Test [1] addresses HLA-A*01:01. Nature of the test: IEDB peptide-MHC binding, purified MHC/direct/fluorescence; filed as Kd, often an IC50 or EC50 that approximates it; ≥ and ≤ were set here for values at or beyond the usual limits of such assays.
Test [2] has as its target HLA-A*02:01. Described as above.
The target in a further test is HLA-A*03:01. The test is described as above.
Another test concerns the target HLA-A*11:01. Described as above.
In test [3] the target is HLA-A*26:01. The description is as above. The note with it: source organism: Corynebacterium glutamicum.
A further test addresses HLA-A*31:01. The test is described as above.
Another test deals with HLA-A*69:01. Described as above.
The next test concerns the target HLA-B*07:02. Described as above. The note with it: source organism: Corynebacterium glutamicum.
For a further test, the target named is HLA-B*08:01. Described as above.
Test [4] has as its target HLA-B*15:01. The test is described as above.
A further test addresses HLA-B*27:05. The test is described as above.
The next test deals with HLA-B*40:01. The description is as above.
Test [5] concerns the target HLA-B*58:01. The description is as above.
Another test addresses HLA-B*15:42. Kind of test: IEDB peptide-MHC binding, purified MHC/competitive/fluorescence; filed as Kd, often an IC50 or EC50 that approximates it; ≥ and ≤ were set here for values at or beyond the usual limits of such assays.
Another test concerns the target HLA-B*45:06. The description is as above.
The next test deals with HLA-B*83:01. The description is as above.
A further test has as its target HLA-B*15:17. Kind of test: IEDB peptide-MHC binding, purified MHC/direct/fluorescence; filed as Kd, often an IC50 or EC50 that approximates it; ≥ and ≤ were set here for values at or beyond the usual limits of such assays. The settings on record: source organism: Mycobacterium tuberculosis.
The next test addresses HLA-B*18:01. Described as above. The settings on record: source organism: Mycobacterium tuberculosis.
In the next test the target is HLA-B*46:01. Described as above. The settings on record: source organism: Mycobacterium tuberculosis.
The target in the next test is HLA-B*48:01. The description is as above. The note with it: source organism: Mycobacterium tuberculosis.
Test [6] concerns the target HLA-B*51:01. The description is as above.
Test [7] addresses HLA-B*57:01. Described as above. The note with it: source organism: Mycobacterium tuberculosis.
The next test has as its target HLA-C*12:03. The test is described as above.
The target of test [8] is HLA-A*02:01. Nature of the test: IEDB peptide-MHC binding, purified MHC/competitive/fluorescence; filed as Kd, often an IC50 or EC50 that approximates it; ≥ and ≤ were set here for values at or beyond the usual limits of such assays. The settings on record: source organism: Salmonella enterica subsp. enterica serovar Typhi.
Test [9] addresses HLA-B*15:01. Described as above.
A further test addresses HLA-B*39:01. Described as above. The note with it: source organism: Salmonella enterica subsp. enterica serovar Typhi.
Test [10] has as its target HLA-B*57:01. Kind of test: IEDB peptide-MHC binding, purified MHC/competitive/radioactivity; filed as Kd, often an IC50 or EC50 that approximates it; ≥ and ≤ were set here for values at or beyond the usual limits of such assays.
Test [11] concerns the target HLA-B*58:01. Described as above.
The target in the next test is HLA-A*32:01. The test is described as above. The settings on record: source organism: Dengue virus 2 Jamaica/1409/1983.
Test [12] addresses HLA-A*01:01. The test is described as above. The note with it: source organism: Dengue virus 1 Brazil/97-11/1997.
Test [13] concerns the target HLA-A*26:01. The description is as above. The note with it: source organism: Dengue virus 1 Brazil/97-11/1997.
A further test concerns the target HLA-A*68:02. The description is as above. The note with it: source organism: Dengue virus 1 Brazil/97-11/1997.
Test [14] concerns the target HLA-A*30:01. Described as above. The note with it: source organism: Dengue virus 1 Brazil/97-11/1997.
Test [15] concerns the target HLA-B*51:01. Kind of test: IEDB peptide-MHC binding, purified MHC/competitive/fluorescence; filed as Kd, often an IC50 or EC50 that approximates it; ≥ and ≤ were set here for values at or beyond the usual limits of such assays. The settings on record: source organism: Vibrio vulnificus CMCP6.
In the next test the target is HLA-B*08:02. Kind of test: IEDB peptide-MHC binding, purified MHC/direct/fluorescence; filed as Kd, often an IC50 or EC50 that approximates it; ≥ and ≤ were set here for values at or beyond the usual limits of such assays. The note with it: source organism: Mycobacterium tuberculosis str. Haarlem.
Test [16] concerns the target HLA-A*30:01. Nature of the test: IEDB peptide-MHC binding, purified MHC/competitive/fluorescence; filed as Kd, often an IC50 or EC50 that approximates it; ≥ and ≤ were set here for values at or beyond the usual limits of such assays. The settings on record: source organism: Mycobacterium tuberculosis C.
The mark [17] stands for this setting: source organism: Corynebacterium glutamicum.
Setting [18] is: source organism: Corynebacterium glutamicum ATCC 13032.
Setting [19] is: source organism: Mycobacterium tuberculosis.
[20] abbreviates: source organism: Mycobacterium tuberculosis str. Haarlem.
Setting [21] is: source organism: Mycobacterium tuberculosis C.
[22] abbreviates: source organism: West Nile virus.
Where [23] appears, read: source organism: Dengue virus 3 Martinique/1243/1999.
Setting [24] is: source organism: Dengue virus 2 Jamaica/1409/1983.
Setting [25] is: source organism: Dengue virus 1 Brazil/97-11/1997.
Where [26] appears, read: source organism: Dengue virus 1 Singapore/S275/1990.

As for AEHDPWWAV, the dissociation constant (Kd) with HLA-A*01:01 [1] (setting [17]), in the test with HLA-A*02:01 [2] (setting [17]), in the test with HLA-A*03:01 (setting [17]), with HLA-A*11:01 (setting [17]), in the test with HLA-A*26:01 [3] and with HLA-A*31:01 (setting [17]) was ≥ 20 µM each time. In addition, the Kd with HLA-A*69:01 (setting [17]) is ≥ 20 µM; with HLA-B*07:02 it was 8.99 µM; in the test with HLA-B*08:01 (setting [17]), ≥ 20 µM; with HLA-B*15:01 [4] (setting [17]), ≥ 20 µM; with HLA-B*27:05 (setting [17]), ≥ 20 µM; with HLA-B*40:01 (setting [17]) it was 0.0549 µM. The Kd with HLA-B*58:01 [5] (setting [17]) was ≥ 20 µM; with HLA-B*15:42 (setting [18]), ≥ 5 µM; with HLA-B*45:06 (setting [18]) it was ≥ 5 µM; with HLA-B*83:01 (setting [18]), ≥ 5 µM.

Regarding APRGFRAAF, the Kd with HLA-A*01:01 [1] (setting [19]), with HLA-A*02:01 [2] (setting [19]), with HLA-A*03:01 (setting [19]), with HLA-A*11:01 (setting [19]), in the test with HLA-A*31:01 (setting [19]) and in the test with HLA-A*69:01 (setting [19]) was ≥ 20 µM throughout. Moreover, the Kd with HLA-B*08:01 (setting [20]) is 0.1 µM; with HLA-B*15:01 [4] (setting [19]) it was ≥ 20 µM; in the test with HLA-B*15:17, 5.45 µM; with HLA-B*18:01 it was ≥ 20 µM; with HLA-B*27:05 (setting [19]), ≥ 20 µM; with HLA-B*40:01 (setting [19]), ≥ 20 µM. In addition, the dissociation constant Kd with HLA-B*46:01 was ≥ 20 µM; with HLA-B*48:01 it was ≥ 20 µM; with HLA-B*51:01 [6] (setting [19]), ≥ 20 µM; with HLA-B*57:01 [7] it was ≥ 20 µM; in the test with HLA-B*58:01 [5] (setting [19]), ≥ 20 µM; with HLA-B*15:42 (setting [21]) it was ≥ 5 µM. Moreover, the equilibrium dissociation constant (Kd) in the test with HLA-B*45:06 (setting [21]) was ≥ 5 µM; with HLA-B*83:01 (setting [21]), 0.038 µM.

As to RVYSDHQAL, the Kd in the test with HLA-B*51:01 [6] (setting [22]) is ≥ 20 µM; with HLA-C*12:03 (setting [22]) it was 0.65 µM.

Regarding TQFAGVVTV, the dissociation constant (Kd) worked out at 0.003 µM with HLA-C*12:03 (source organism: Salmonella enterica subsp. enterica serovar Typhi str. CT18), 0.0005 µM with HLA-A*02:01 [8], 0.212 µM with HLA-B*15:01 [9] (source organism: Salmonella enterica subsp. enterica serovar Typhi) and 0.0017 µM with HLA-B*39:01.

YLQQNTHTL: the dissociation constant (Kd) in the test with HLA-C*12:03 (source organism: Homo sapiens) is 0.09 µM.

Regarding VASEGIKYTD, the dissociation constant (Kd) in the test with HLA-B*57:01 [10] (setting [23]) worked out at 5.16 µM; with HLA-B*58:01 [11] (setting [23]), 0.34 µM.

With TASILLWYAQ, the values for the Kd with HLA-A*32:01, with HLA-B*57:01 [10] (setting [24]) and with HLA-B*58:01 [11] (setting [24]) were ≥ 33.1 µM, 0.029 µM and 1.01 µM, respectively.

As to TTSGTYVSAI, the Kd in the test with HLA-A*01:01 [12] is ≥ 70.4 µM; with HLA-A*26:01 [13] it was 17 µM; with HLA-A*68:02, 0.0205 µM; with HLA-B*57:01 [10] (setting [25]) it was 0.179 µM.

As to RAVHADMGYW, the Kd with HLA-B*58:01 [11] (setting [24]) turned out to be 0.000235 µM.

For the sequence KSIEDNPEI, the dissociation constant Kd in the test with HLA-B*58:01 [11] (setting [24]) came to 0.00548 µM.

In the case of KVRKDIPQW, the equilibrium dissociation constant (Kd) with HLA-A*30:01 [14] came to 0.254 µM; with HLA-B*57:01 [10] (setting [25]), 0.0355 µM; in the test with HLA-B*58:01 [11] (setting [25]), 0.00597 µM.

As to IASAIVLEFF, the dissociation constant (Kd) in the test with HLA-B*57:01 [10] (setting [23]) amounted to 0.883 µM; with HLA-B*58:01 [11] (setting [23]), 0.021 µM.

In the case of NASDRMGMGT, the Kd with HLA-B*57:01 [10] (setting [26]) was determined as 0.652 µM; with HLA-B*58:01 [11] (setting [26]), 5.12 µM.

In the test with HLA-C*12:03 (source organism: Leishmania panamensis), FSLENVRLM displayed a dissociation constant (Kd) of 0.772 µM.

For FAFHTVFHI, the figures for the Kd in the test with HLA-C*12:03 (source organism: Vibrio vulnificus CMCP6) and with HLA-B*51:01 [15] were ≤ 0.001 µM and 0.0429 µM, respectively.

For the sequence GAVFQEEQGW, the dissociation constant (Kd) with HLA-B*58:01 [11] (source organism: Dengue virus 4 Philippines/H241/1956) is 0.0185 µM.

For APRARTAAF, the Kd in the test with HLA-A*01:01 [1] (setting [19]), with HLA-A*02:01 [2] (setting [19]), in the test with HLA-A*03:01 (setting [19]), with HLA-A*11:01 (setting [19]), with HLA-A*31:01 (setting [19]) and in the test with HLA-A*69:01 (setting [19]) was ≥ 20 µM throughout. In addition, the Kd in the test with HLA-B*08:01 (setting [20]) was 0.005 µM; in the test with HLA-B*08:02 it was 0.23 µM; with HLA-B*18:01 it was 12.3 µM; with HLA-B*27:05 (setting [19]) it was ≥ 20 µM; in the test with HLA-B*40:01 (setting [19]) it was ≥ 20 µM; in the test with HLA-B*46:01, ≥ 20 µM. Besides, the dissociation constant Kd with HLA-B*48:01, in the test with HLA-B*51:01 [6] (setting [19]), in the test with HLA-B*57:01 [7], with HLA-B*58:01 [5] (setting [19]), in the test with HLA-A*30:01 [16] and with HLA-B*15:01 [9] (setting [21]) was ≥ 20 µM throughout. Also, the dissociation constant Kd is ≥ 5 µM with HLA-B*15:42 (setting [21]), ≥ 5 µM in the test with HLA-B*45:06 (setting [21]) and 0.0526 µM with HLA-B*83:01 (setting [21]).

What is called Kd is the equilibrium constant for the complex coming apart.

The record behind these values is the Immune Epitope Database (IEDB).
